Changes are numbered by the printed parent chain.
B1: 84C3G8H7-chimeric-scFv (20-2-28) (scFv, V domains shown)
VH: EVQLQQSGAELVRPGALVKLSCKASGFNIKDYYMHWVKQRPEQGLEWIGWIDPENGNTIYDPKFQGKASITADTSSNTAYLQLSSLTSEDTAVYYCARGWFAYWGQGTLVTVSA
VL: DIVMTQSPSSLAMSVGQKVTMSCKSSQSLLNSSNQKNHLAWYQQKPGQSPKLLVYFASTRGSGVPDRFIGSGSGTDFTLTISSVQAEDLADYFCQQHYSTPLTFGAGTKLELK
B2: humanized antibody 28-H3 (84C3G8H7-VH3 + VL1) (scFv)
scFv: QVQLVQSGAEVKKPGASVKVSCKASGFNIKDYYMHWVRQAPGQRLEWIGWIDPENGNTIYDPKFQGRATITADTSASTAYMELSSLRSEDTAVYYCARGWFAYWGQGTLVTVSSGGGGSGGGGSGGGGSGGGGSDIVMTQSPDSLAVSLGERATINCKSSQSLLNSSNQKNHLAWYQQKPGQPPKLLIYFASTRASGVPDRFSGSGSGTDFTLTISSLQAEDVAVYYCQQHYSTPLTFGGGTKLELK
notes: the format in the SPR assay is not clearly stated
B3: humanized antibody 28-H4 (84C3G8H7-VH3 + VL2) (scFv)
scFv: B2 scFv with I188V, Y227F
notes: as for B2
B4: humanized antibody 28-H5 (84C3G8H7-VH4 + VL1) (scFv)
scFv: B2 scFv with R38K, S77N
notes: as for B2
B5: humanized antibody 28-H8 (84C3G8H7-VH3 + VL2(PTM)) (scFv)
scFv: B2 scFv with I188V, A195G, Y227F
notes: as for B2
B6: humanized antibody 28-H9 (84C3G8H7-VH4 + VL1(PTM)) (scFv)
scFv: B2 scFv with R38K, S77N, A195G
notes: as for B2
B7: humanized antibody 28-H7 (84C3G8H7-VH3 + VL1(PTM)) (scFv)
scFv: B2 scFv with A195G
notes: as for B2
B8: chimeric-VH + VL of clone 20-2-40-2 (98G2E9) (antibody, V domains shown)
VH: EVLLVESGGGLVKPGGSLKLSCAASGFTFSGYAMSWVRQTPEKRLEWVATITSGGSYTYYPDSVKGRFTISRDNAKNTLYLQMSSLRSEDTAMYYCARKDYGNYWFAYWGQGTLVTVSA
VL: DVVMTQTPLSLPVSLGDQASISCRSSQSLVHSDGNTYLHWYLQKPGQSPKLLIYKVSNRFSGVPDRFSGSGSGTDFTLKISRVEAEDLGVYFCSQTTQVPWTFGGGTKLEIK
notes: also called clone #40-2
B9: 20-2-25 (antibody, V domains shown)
VH: B1 VH with W100Y, F101L, A102V
VL: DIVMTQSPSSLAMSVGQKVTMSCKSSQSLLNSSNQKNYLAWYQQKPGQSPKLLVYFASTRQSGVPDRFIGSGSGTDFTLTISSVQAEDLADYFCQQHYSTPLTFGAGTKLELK
notes: the antibody in the subclone supernatant, not the CAR m26; also called 70B6F6H11
B10: 20-2-16 (antibody, V domains shown)
VH: B1 VH with S69T, W100Y, F101L, A102V
VL: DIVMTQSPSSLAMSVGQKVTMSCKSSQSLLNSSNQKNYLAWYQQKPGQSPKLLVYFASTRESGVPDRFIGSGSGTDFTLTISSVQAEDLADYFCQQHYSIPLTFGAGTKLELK
notes: also called 90H3D2
B11: 20-2-19 (antibody, V domains shown)
VH: B1 VH with W100Y, F101L
VL: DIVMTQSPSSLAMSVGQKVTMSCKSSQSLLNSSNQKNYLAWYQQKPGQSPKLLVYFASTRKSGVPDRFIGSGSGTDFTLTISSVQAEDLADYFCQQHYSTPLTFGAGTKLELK
notes: also called 53H2H7 (recombinantly expressed)
B12: 20-2-34 (antibody, V domains shown)
VH: B1 VH with W100Y, F101L, A102V
VL: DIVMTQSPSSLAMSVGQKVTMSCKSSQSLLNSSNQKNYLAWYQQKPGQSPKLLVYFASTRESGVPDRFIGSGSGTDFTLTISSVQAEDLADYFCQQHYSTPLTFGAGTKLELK
notes: the antibody in the subclone supernatant, not the CAR m28; also called 84G9F9
B13: 20-2-10 (antibody, V domains shown)
VH: B1 VH with E10D, M34L, W100Y, F101L, A102T
VL: DIVMTQSPSSLAMSVGQKVTMNCKSSQNLLNSSNQKNYLAWFQQKPGQSPKLLVYFASTRYSGVPDRFMGSGSGTDFTLTVSSVQAEDLADYFCQQHYSTPLTFGAGTKLELK
notes: also called 75H11B1
B14: 20-2-22 (antibody, V domains shown)
VH: B1 VH with Y80C
VL: B13 VL with V3L, N22S, N28S, Y38H, F42Y, Y61Q, M69I, V81I
notes: also called 57D8C3
B15: 20-2-31 (antibody, V domains shown)
VH: B1 VH with W100Y, F101L, A102V
VL: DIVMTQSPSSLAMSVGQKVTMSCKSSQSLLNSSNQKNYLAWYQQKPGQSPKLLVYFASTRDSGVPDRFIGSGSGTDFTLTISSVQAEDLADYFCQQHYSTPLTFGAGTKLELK
notes: also called 95G10G8E4
B16: 20-2-7 (antibody, V domains shown)
VH: QIQLVQSGPELKKPGETVKISCKASGYTFTDYSIHWVKQAPGKGLKWMGWINTETGEPTYADDFKGRFAFSLETSASTAYLQINNLKNEDTATYFCSNYGYDVRGDYWGQGTTLTVSS
VL: EIVLTQSPTTMAASPGENITITCSASSGISSNYLHWYQQKPGFSPELLIYSTSNLASGVPARFSGSGSGTSYSLTIGTMEAEDVATYYCHQGSDIPLTFGAGTRLELK
notes: also called 89C2A11
B17: 20-2-49 (antibody, V domains shown)
VH: QVQLQQSGAELAKPGASVKMSCKASAYTFTTYWMHWVKQRPGQGLEWIGYINPNTAYTEYNQNFKDKATLTADKSSSTAYMQLGSLTSEDSAVYYCARGAYYRTYYAMDYWGQGTSVTVSS
VL: DIVLTQSPASLAVSLGQRATISCKASQSVDYDGDSYMNWYQQKPGQPPKLLIYAASNLESGIPARFSGSGSGTDFTLNIHPVEEEDAATYYCLQSNEDPYTFGGGTRLEIN
notes: also called 121E9D12
B18: 20-2-52 (antibody, V domains shown)
VH: QIQLVQSGPELKKPGETVKISCKASGYTFINYGMNWVKQTPGKGLKWMGWINTYTGEPTYADDFKGRFAFSLETSASTAYLQINNLKNEDMATYFCSREEFYSRGAMDYWGQGTSVTVSS
VL: DVLMTQTPLSLPVSLGDQASISCRSSQFIVHSNGNTYLEWYLQKPGQSPKLLIYKISNRFSGVPDRFSGSGSGTDFTLKISRVEAEDLGVYYCFQGSHVPFTFGSGTKLEIK
notes: also called 124A5F2
B19: 20-2-55 (antibody, V domains shown)
VH: QIQLQQSGPELVKPGASVKISCKASGYSFTDYYINWVKQKPGQGLEWIGWIYPGSGNTKYNEKFKGKATLTVDTSSSTAYMQLNSLTSEDTAVYFCARSSRCDFWGQGTTLTVSS
VL: DIQMTQSASSFSVSLGDSVTITCKASEDIYNRLAWYQQKPGNTPRLLISGATSLETGVPSRFSGSGSGKDYTLSITSLQTEDVATYYCQQYWSSPLTFGSGTKLELK
notes: also called 136C11E7
B20: 20-2-43 (antibody, V domains shown)
VH: DVQLQESGPDLVKPSQSLSLNCTVTGYSITSGYSWHWIRQFPGNKLEWMGYIHYSGSTNYNPPLKSRIFIARDTSKNQFFLQLTSVTTEDTATYYCARGVVSNYAMGNWGQGTSVTVSS
VL: ETTVTQSPASLSMAIGEKVTIRCITNTDIDDDMNWYQQKPGEPPKLLISEGNTLRPGVPSRFSSSGYGTDFVFTIENMLSEDVADYYCLQSDDLPLTFGSGTKLEIK
notes: also called 115A10H4
B21: 20-2-37 (antibody, V domains shown)
VH: B8 VH with L3M, G26R, G31N
VL: B8 VL with T96S, T97I, Q98H
notes: also called 98B10B12

The binders below were run against T1, EGFRvIII target antigen (SPR ligand) (UniProt P00533 25-645, limits assumed) (assay: SPR; antibody as analyte).
T1 construct: also called EGFRvIII antigen
B1 showed a Kd of 59 nM, a koff of 0.00883 s⁻¹ and a kon of 150000 M⁻¹ s⁻¹.
B2 showed a Kd of 167 nM, a koff of 0.0221 s⁻¹ and a kon of 132000 M⁻¹ s⁻¹.
For B3, the Kd was 154 nM, the koff was 0.0206 s⁻¹ and the kon was 134000 M⁻¹ s⁻¹.
B4 was tested, and the Kd was 80.3 nM, the koff was 0.00891 s⁻¹ and the kon was 111000 M⁻¹ s⁻¹.
Binder B5 has a Kd of 72.6 nM, a koff of 0.0103 s⁻¹ and a kon of 142000 M⁻¹ s⁻¹.
B6 showed a Kd of 47.5 nM, a koff of 0.00665 s⁻¹ and a kon of 140000 M⁻¹ s⁻¹.
For B7, the Kd was 77.2 nM, the koff was 0.0112 s⁻¹ and the kon was 146000 M⁻¹ s⁻¹.

Molecular target: T1, EGFRvIII target antigen (SPR ligand)
Assay: SPR; antibody as analyte
Remark: another data set of the same source
B8 showed a Kd of 49.9 nM, a koff of 0.00181 s⁻¹ and a kon of 36200 M⁻¹ s⁻¹.

The binders below were run against T2, EGFRvIII overexpressed on target cells (UniProt P00533 25-1210) (assay: flow cytometry of the subclone supernatant on F98npEGFRvIII cells (Geom mean)).
T2 construct: whole, on cells; Same protein on two cell lines: F98npEGFRvIII for flow cytometry, U87MG-EGFRvIII for the killing assays; also called F98npEGFRvIII; U87MG-EGFRvIII
B9: binds.
B10: binds.
B11: binds.
B12: binds.
B13: binds.
B14: binds.
B15: binds.
B16: binds.
B17: binds.
B18: binds.
B19: binds.

What follows are binders tested against T3, EGFR (wild type) expressed on target cells (UniProt P00533 25-1210, limits assumed) (assay: flow cytometry of the subclone supernatant on F98npEGFR cells (Geom mean)).
T3 construct: whole, on cells; also called F98npEGFR; U87MG-EGFR
B9: no binding.
B10: no binding.
B11: no binding.
B12: no binding.
B13: no binding.
B14: no binding.
B15: no binding.
B16: no binding.
B17: no binding.
B18: no binding.
B20: no binding.
B19: no binding.
B21: no binding.

— patent publication US20260108607A1 (BEIJING DCTY BIOTECH, published 2026)
